This assay addresses human 4-1BB receptor (h4-1-BB) expressed on a genetically engineered Jurkat T cell line (4-1BB Bioassay, Promega) (human) (UniProt Q07011). The assay can be described thus: cell-based or functional assay. The settings on record: scale: relative luciferase expression.

human 4-1BB receptor (h4-1-BB) expressed on a genetically engineered Jurkat T cell line (4-1BB Bioassay, Promega) (human), sequence (Q07011 24-255, change not shown): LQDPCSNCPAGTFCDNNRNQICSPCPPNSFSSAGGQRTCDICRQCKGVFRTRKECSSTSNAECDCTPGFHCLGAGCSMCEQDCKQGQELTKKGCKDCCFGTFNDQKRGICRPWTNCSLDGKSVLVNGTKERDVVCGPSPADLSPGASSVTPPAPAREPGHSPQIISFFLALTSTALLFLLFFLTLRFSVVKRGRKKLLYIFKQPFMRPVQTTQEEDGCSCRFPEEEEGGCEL

For the substance “His-tagged h4-1BBL cross-linked with an Fc (from UniProt P41273 71-254) (ligand)”, the luciferase expression by Jurkat-h4-1BB reporter cells (4-1BB Bioassay, Promega), reference value was 1.

(Values after patent US20230190922A1.)
